Source: paper PMC9552509

Biological target: TACC3 (UniProt Q9Y6A5)
Test: co-IP with anti-FLAG and anti-TACC3
Settings: reference: wild-type stathmin1-FLAG; sites S16

binding against the reference: lost
Substance: stathmin1 (from UniProt P16949) stathmin1 S16A-FLAG
